Experimental data published in publication PMC4755751 (eLife, 2015).

Experiments:
[1] = molecular target: T1, Biotinylated His14-Avi-bdSUMO-tagged Nup98^716-866 (Xenopus tropicalis, UniProt A0A1B8XZT4, biotin on the Avi-tag); experiment: pull-down; biotinylated His14-Avi-bdSUMO-Nup98^716-866 immobilized on Streptavidin agarose; GFP-tagged TP377 bound without or with an equimolar amount or fivefold excess of nanobody competitor; elution by cleavage of the bdSUMO tag; SDS-PAGE, Coomassie; conditions: both partners purified
T1 construct: also called Nup98 NPC anchor domain

[2] = molecular target: T2, Nup98 in nuclear pore complexes of Xenopus laevis XL177 cells (Xenopus laevis XL177 cells, UniProt A0A8J1MFV7); experiment: immunostaining of cells or tissue; digitonin-permeabilized Xenopus laevis XL177 cells, 1-10 nM fluorescent nanobody 15 min on ice, washed, then fixed; confocal laser scanning microscopy; conditions: one partner purified
T2 construct: Xenopus laevis Nup98 within intact NPCs; also called (x)Nup98; source: endogenous, digitonin-permeabilized Xenopus laevis XL177 cells

[3] = molecular target: T3, Nup98 (endogenous, Xenopus egg extract) (Xenopus laevis (egg extract), UniProt A0A8J1MFV7); experiment: affinity purification with mass spectrometry; biotinylated tagged nanobody on magnetic Streptavidin beads, Xenopus egg extract (HSS) 1 h at 4°C, washes in S250 and in 50 mM Tris/HCl pH 7.5, 300 mM NaCl, 0.05% Tween-20, RanQ69L•GTP wash, elution by SUMOStar protease; SDS-PAGE, Coomassie, bands identified by mass spectrometry; conditions: one partner purified
T3 construct: Xenopus Nup98, FG-repeat nucleoporin; source: endogenous, Xenopus egg extract (high-speed supernatant)

B1: untagged TP377 produced in the oxidative periplasm (VHH)
VHH: QVQLVESGGGPVEAGGSLRLSCAASGRSFSNSVMAWFRQAPGKEREFLSVLNWSSGRTSIADSVKGRFTMSRDPAKITVYLQMNGLKPEDTAVYYCAASNRGSLYTLDNQNRYEDWGQGTQVTVSS
notes: also called oxidized, disulfide bond-stabilized nanobody; source: E. coli BLR periplasm
binding result [1]: binds

B2: unlabeled TP377 (competitor in Figure 5—figure supplement 1c) (VHH)
VHH: QVQLVESGGGPVEAGGSLRLSCAASGRSFSNSVMAWFRQAPGKEREFLSVLNWSSGRTSIADSVKGRFTMSRDPAKITVYLQMNGLKPEDTAVYYCAASNRGSLYTLDNQNRYEDWGQGTQVTVSS
binding result [1]: binds

B3: untagged TP377 produced in the reductive cytoplasm of E. coli BLR (VHH)
VHH: QVQLVESGGGPVEAGGSLRLSCAASGRSFSNSVMAWFRQAPGKEREFLSVLNWSSGRTSIADSVKGRFTMSRDPAKITVYLQMNGLKPEDTAVYYCAASNRGSLYTLDNQNRYEDWGQGTQVTVSS
notes: also called reduced variant; source: E. coli BLR cytoplasm
binding result [1]: binds

B4: 3x Alexa Fluor 488-labeled TP377 (VHH)
VHH: QVQLVECGGGPVEAGGSLRLSCAASGRSFSNSVMAWFRQAPGKEREFLSVLNWSSGRTSIADSVKGRFTMCRDPAKITVYLQMNGLKPEDTAVYYCAASNRGSLYTLDNQNRYEDWGQGTQVTVSS
notes: also called 3xCys; source: E. coli cytoplasm, purified (Ni2+ chelate, bdNEDP1 cleavage), labeled with Alexa Fluor 488 maleimide; not shown: His14-bdNEDD8, N-terminal, cleaved
binding result [1]: binds

B5: untagged TP377 produced in the mildly oxidative cytoplasm of E. coli SHuffle (VHH)
VHH: QVQLVESGGGPVEAGGSLRLSCAASGRSFSNSVMAWFRQAPGKEREFLSVLNWSSGRTSIADSVKGRFTMSRDPAKITVYLQMNGLKPEDTAVYYCAASNRGSLYTLDNQNRYEDWGQGTQVTVSS
notes: also called SHuffle-expressed TP377; source: E. coli SHuffle cytoplasm; not shown: His14-bdNEDD8, N-terminal, cleaved
binding result [1]: binds

B6: anti-Nup98 nanobody TP377 carrying a single N-terminal Alexa Fluor 647 maleimide (VHH)
VHH: QVQLVESGGGPVEAGGSLRLSCAASGRSFSNSVMAWFRQAPGKEREFLSVLNWSSGRTSIADSVKGRFTMSRDPAKITVYLQMNGLKPEDTAVYYCAASNRGSLYTLDNQNRYEDWGQGTQVTVSS
notes: not shown: His14-bdNEDD8, N-terminal, cleaved
binding result [2]: binds

B7: Biotinylated His14-Avi-(GlySer)9-SUMOStar-(GlySer)9-tagged anti-Nup98 nanobody TP377 (VHH)
VHH: QVQLVESGGGPVEAGGSLRLSCAASGRSFSNSVMAWFRQAPGKEREFLSVLNWSSGRTSIADSVKGRFTMSRDPAKITVYLQMNGLKPEDTAVYYCAASNRGSLYTLDNQNRYEDWGQGTQVTVSS
notes: source: E. coli cytoplasm, co-expressed with BirA, purified (Ni2+ chelate, imidazole elution); not shown: His14, N-terminal, kept; (GlySer)9-scSUMOStar-(GlySer)9, N-terminal, kept
binding result [3]: binds
